Here are results for five molecules from US6436654B1, “Methods for identifying compounds that modulate HIF-1α” (Pharmacia & Upjohn AB, priority 1998, dated 2002).

One test addresses T1, HIF-1α/Arnt complex (Homo sapiens, UniProt Q16665).
T1 construct: expression plasmid for full-length HIF-1α (pCMV-HIF-1α); expressed in transfected cells
As to the kind of experiment: pT81/HRE-Luc reporter assay with HIF-1α, Arnt and coactivators (CBP, TIF2, SRC-1). The class given is cell-based. As for the experimental part:
FIG. 8 The transcriptional coactivator TIF2 enhances the HIF-1α-mediated transactivation function and interacts with HIF-1α in vivo. COS7 cells were transiently cotransfected as described in Materials and Methods with 0.5 μg pT81/HRE-Luc reporter construct, hHIF1-α expression vector (pCMV4/HIF-1α, 0.2 μg), Arnt expression vector (pCMV4/Arnt, 0.2 μg) and 0.75-1.5 μg of either TIF2 (pSG5/TIF2) or CBP (Rc/RSV-CBP-HA), as indicated. The total amount of DNA was kept constant by the addition of parental pCMV4 when appropriate. Following transfection cells were incubated either under normoxic (21% O2) or hypoxic conditions (1% O2). Luciferase activities were normalized for transfection efficiency by cotransfection of alkaline phosphatase expressing pRSV-AF. Data are presented as luciferase activity relative to cells transfected with pCMV4 and reporter gene only and incubated at normoxia. Values represent the mean ±S.E. of two independent experiments.
(§1) FIG. 9 The transcriptional coactivator SRC-1 stimulates HIF-1α activity in a hypoxia-dependent manner and interacts in vitro with HIF-1α. (A) COS7 and (B) human embryonic kidney 293 cells were cotransfected with pT81/HRE-Luc (0.5 μg), 0.2 μg of pCMV4/HIF-1α (hHIF1-α), 0.2 μg of pCMV4/Arnt (Arnt), and 0.75-1.5 μg of SRC-1 (pSG5/SRC-1), as indicated. Six h after transfection cells were exposed to either 21 or 1% O2 for 36 h before harvest. Luciferase values are presented as relative luciferase activity as described in the legend to FIG. 1. The results of three independent experiments performed in duplicate ±S.E. are shown. (C) SRC-1 PAS domain is not required for functional interaction with HIF-1α. (Top) Schematic representation of full-length SRC-1 and SRC-1ΔPAS. (Bottom) pGAL4/HIF 71-826 was cotransfected into COS7 cells together with a reporter plasmid expressing the luciferase gene driven by the thymidine kinase minimal promoter under the control of five copies of GAL4-binding sites, and 1.5 μg of either full-length SRC-1 or a deletion mutant of SRC-1, SRC-1ΔPAS, lacking the PAS domain. Cells were exposed to 21 or 1% O2 for 36 h before harvest and reporter gene assays. Luciferase values are presented as relative luciferase activity as described in the legend to FIG. 1. The results of two independent experiments performed in duplicate +S.E. are shown. (D) In vitro interaction between SRC-1 and HIF-1α. COS7 cells were transfected with 10 μg of the expression plasmid pGST-HIF-1α (GST-HIF) or empty GST expression vector (GST). Cells were exposed to either 100 μM CoCl2 or vehicle (H2O) for 24 h. […] The eluted material was analyzed on 5% SDS-PAGE and visualized by fluorography. ⅕×Input represents one-fifth of the amount of [^35S]methionine-labeled SRC-1 used in the binding reactions. […]

The target in another test is T2, GST-HIF-1α (Homo sapiens, UniProt Q16665).
T2 construct: expressed in transfected cells; host or cells: COS7 cells, treated with 100 μM CoCl2 or vehicle; whole cell extract used
T2 sequence (Q16665 whole entry): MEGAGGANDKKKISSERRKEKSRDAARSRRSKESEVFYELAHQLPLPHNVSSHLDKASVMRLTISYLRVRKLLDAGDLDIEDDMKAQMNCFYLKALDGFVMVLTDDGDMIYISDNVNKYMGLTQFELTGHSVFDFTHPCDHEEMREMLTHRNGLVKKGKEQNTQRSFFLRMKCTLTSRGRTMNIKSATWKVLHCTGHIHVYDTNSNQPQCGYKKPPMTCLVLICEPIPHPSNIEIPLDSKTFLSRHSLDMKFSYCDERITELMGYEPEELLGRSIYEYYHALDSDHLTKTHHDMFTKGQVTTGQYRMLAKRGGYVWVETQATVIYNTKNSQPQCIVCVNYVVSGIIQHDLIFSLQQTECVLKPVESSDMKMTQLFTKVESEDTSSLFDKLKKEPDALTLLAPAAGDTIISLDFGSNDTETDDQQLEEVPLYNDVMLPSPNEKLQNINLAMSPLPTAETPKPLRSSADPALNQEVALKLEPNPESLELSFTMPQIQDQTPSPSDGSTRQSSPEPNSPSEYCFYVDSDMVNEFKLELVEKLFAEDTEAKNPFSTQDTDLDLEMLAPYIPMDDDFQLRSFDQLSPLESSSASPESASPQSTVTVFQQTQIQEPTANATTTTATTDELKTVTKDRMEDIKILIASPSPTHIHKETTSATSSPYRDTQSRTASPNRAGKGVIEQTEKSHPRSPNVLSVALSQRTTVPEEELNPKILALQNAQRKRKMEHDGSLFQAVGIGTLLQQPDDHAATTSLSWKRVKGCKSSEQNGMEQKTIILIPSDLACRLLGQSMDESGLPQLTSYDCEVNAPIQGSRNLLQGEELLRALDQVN
Put plainly: GST precipitation assay of in vitro translated [35S]labeled SRC-1 with GST-HIF-1α. The class given is binding. As for the experimental part: as §1, with “assays.” for “assays. Luciferase values are presented as relative luciferase activity as described in the legend to FIG. 1. The results of two independent experiments performed in duplicate +S.E. are shown. (D) In vitro interaction between SRC-1 and HIF-1α. COS7 cells were transfected with 10 μg of the expression plasmid pGST-HIF-1α (GST-HIF) or empty GST expression vector (GST). Cells were exposed to either 100 μM CoCl2 or vehicle (H2O) for 24 h.”

Another test deals with GST/Ref-1 (Homo sapiens, UniProt P27695). Put plainly: Pull-down of [35S]methionine-labeled GAL4/HIF proteins with GST/Ref-1. The class given is binding. The settings on record: presence or absence of diamide. As for the experimental part:
The precise mechanism by which Ref-1 activates HIF-1α is not known. […] To further investigate whether Ref-1 could interact with HIF-1α, we tried to trap the interaction by using a crosslinking reagent such as diamide, which oxidizes cysteine sulfhydryls to disulfides. A series of experiments was performed with GST-tagged purified Ref-1. [^35S]methionine-labeled in vitro translated GAL4/HIF 1-826 was incubated with GST/Ref-1 in the presence or absence of diamide.
Next, we tried a series of pull-down experiments with [^35S]methionine-labeled in vitro translated GAL4/HIF […] and GAL4/HIF 531-584. […] An interaction between GAL4/HIF […] and GST/Ref-1 was also detected, and this interaction was enhanced in the presence of diamide. In excellent agreement with this observation the C-TAD contains two cysteine residues. […] Immunoblot analysis verified that the input concentrations of GST/Ref-1 or GST alone were similar.

The test system of test [1] is GAL4 responsive reporter plasmid. As to the kind of experiment: Cotransfection of GAL4-HIF-1α fusion proteins with GAL4 responsive luciferase reporter. The class given is cell-based, simian. An excerpt: To analyze functional activities of HIF-1α independently of the endogenous DNA binding and dimerization domains and the Arnt partner, we next fused HIF-1α to the heterologous DNA binding domain of GAL4. Functional activity of the fusion protein was monitored in COS7 cells by a cotransfection assay using a reporter gene construct carrying five GAL4 DNA binding elements in front of thymidine kinase promoter and the luciferase gene. Six hours after transfection media was changed, and cells were either left uninduced or exposed to 1% oxygen for 30 h prior to harvest. In the presence of either empty expression vector or a vector expressing the minimal GAL4 DNA binding domain, reporter gene activity was unaltered by reduced oxygen levels. […] The GAL4 DNA binding domain is known to harbor an NLS motif capable of taking fusion proteins to the nucleus (Ma and Ptashne (1987) Cell 51, 113-119). We therefore used antibodies directed against the DNA binding domain of GAL4 to examine in both normoxic and hypoxic cells the intracellular localization of the GAL4-HIF-1α fusion protein by immunofluorescence.
Transcriptional activity of GFP and GAL4 fusion constructs was analyzed in a cotransfection assay where effector plasmids (0.2 μg/30-mm dish) together with a reporter gene (1.5 μg/30-mm dish) were introduced into COS7 or HeLa cells. […]
(A reporter such as luciferase makes a cellular process visible.)

Test [2] deals with hypoxia responsive reporter gene (HRE-luc). Put plainly: Cotransfection of GFP-HIF-1α fusion constructs with hypoxia responsive reporter gene (HRE-luc). The class given is cell-based, simian. The settings on record: 1% O2 vs normoxia, no CBP. From the text: We next examined the ability of GFP-HIF-1α fusion proteins in functional cotransfection assays where GFP-HIF-1α expression vectors were introduced into COS7 cells together with a hypoxia-responsive gene reporter construct carrying three tandem copies of the erythropoietin hypoxia responsive element (HRE) in front of the Herpes simplex thymidine kinase promoter and the luciferase gene. […] This reporter gene activity was further stimulated about 4-fold by hypoxia (FIG. 6A). In control experiments, transient expression of wild-type HIF-1α also yielded a similar pattern of reporter gene activation, albeit with a slightly lower potency generating about a 2-fold activation response upon exposure to hypoxia. […] In fact, stabilization of the fusion protein (FIG. 2C) by the GFP moiety may rather have enhanced the potency of the activation response produced by HIF-1α.
Transcriptional activity of GFP and GAL4 fusion constructs was analyzed in a cotransfection assay where effector plasmids (0.2 μg/30-mm dish) together with a reporter gene (1.5 μg/30-mm dish) were introduced into COS7 or HeLa cells. The reporter plasmid encoded firefly luciferase gene under the control of thymidine kinase minimal promoter and either five or three copies of GAL4 or HIF-responsive elements, respectively.

The subject of a further test is COS7 cells. Put plainly: Subcellular distribution of GFP-HIF-1α chimeras in living cells (fluorescence microscopy, cell counting). The class given is cell-based, simian.

T1 sequence (Q16665 whole entry): as above
T1 sequence (P27540 whole entry partner): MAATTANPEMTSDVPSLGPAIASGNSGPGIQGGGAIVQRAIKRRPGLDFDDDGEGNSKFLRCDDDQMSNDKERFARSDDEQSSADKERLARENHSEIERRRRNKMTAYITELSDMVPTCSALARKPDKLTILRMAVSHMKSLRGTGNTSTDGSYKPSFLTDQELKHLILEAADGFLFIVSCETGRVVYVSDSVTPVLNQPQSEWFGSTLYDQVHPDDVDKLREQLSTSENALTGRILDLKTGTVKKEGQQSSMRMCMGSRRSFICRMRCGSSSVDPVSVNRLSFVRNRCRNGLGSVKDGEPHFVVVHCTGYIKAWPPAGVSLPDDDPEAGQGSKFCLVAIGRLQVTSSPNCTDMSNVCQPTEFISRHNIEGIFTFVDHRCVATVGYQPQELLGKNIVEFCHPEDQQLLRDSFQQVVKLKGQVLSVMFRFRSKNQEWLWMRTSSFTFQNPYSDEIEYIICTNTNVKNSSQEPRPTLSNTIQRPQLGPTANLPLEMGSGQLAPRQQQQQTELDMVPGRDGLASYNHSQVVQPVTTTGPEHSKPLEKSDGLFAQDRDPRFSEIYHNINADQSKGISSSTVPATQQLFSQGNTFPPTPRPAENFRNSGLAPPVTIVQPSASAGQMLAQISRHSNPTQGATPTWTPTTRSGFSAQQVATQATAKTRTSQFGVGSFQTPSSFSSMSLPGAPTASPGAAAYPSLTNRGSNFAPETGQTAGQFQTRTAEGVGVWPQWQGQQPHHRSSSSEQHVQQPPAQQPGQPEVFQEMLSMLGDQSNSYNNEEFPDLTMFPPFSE
Sequence of GST/Ref-1 (P27695 whole entry, species assumed, the tested form may be a part): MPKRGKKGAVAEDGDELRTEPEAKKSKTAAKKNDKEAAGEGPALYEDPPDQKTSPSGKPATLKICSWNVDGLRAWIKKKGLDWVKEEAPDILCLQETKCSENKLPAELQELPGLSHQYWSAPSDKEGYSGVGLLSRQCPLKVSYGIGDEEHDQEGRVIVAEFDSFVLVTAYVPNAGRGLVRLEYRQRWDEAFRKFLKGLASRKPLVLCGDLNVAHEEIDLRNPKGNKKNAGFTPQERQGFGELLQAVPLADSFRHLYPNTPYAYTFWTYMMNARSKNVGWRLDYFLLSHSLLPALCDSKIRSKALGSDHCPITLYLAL

Take “TIF2: p160 family transcriptional coactivator”: the “activation of the reporter gene over the levels observed at normoxia” value with HIF-1α/Arnt complex (coexpression with HIF-1α, COS7) was “around 12 fold”.

For “SRC-1: p160 family transcriptional coactivator”, the “binding to GST-HIF-1α (in words)” value with GST-HIF-1α (extract of cells treated with 100 μM CoCl2) is reported as “specifically retained”; with GST-HIF-1α (extract of non-treated cells) it was “no significant binding”. In addition, the “enhancement of transcriptional activity of HIF-1α” value with HIF-1α/Arnt complex (normoxic conditions, COS7) was “around 3 fold”.

As to “GAL4-HIF-1α: full length HIF-1α fused to the GAL4 DNA binding domain”, the “binding to GST/Ref-1 (in words)” value with GST/Ref-1 is on record as “weakly bind GST/Ref-1”. Also, the “hypoxia-dependent activation of GAL4 reporter gene activity” value in test [1] (1% O2 vs normoxia, no exogenous coactivator) is recorded as “about 2 fold”. For the same molecule, the “stimulation of GAL4 reporter activity by coexpressed CBP” value in test [1] (hypoxic conditions, vs hypoxia without exogenous coactivator) is given as 19 fold.

Regarding “HIF-1α: transiently expressed wild-type human hypoxia-inducible factor-1α”, the “increase of reporter gene activity by hypoxia” value in the test with HIF-1α/Arnt complex (coexpression of HIF-1α and Arnt, 1% O2) is on record as roughly 1.5 fold. In addition, the “stimulation of pT81/HRE-luc reporter gene activity” value with HIF-1α/Arnt complex (coexpression of HIF-1α and Arnt, normoxic conditions) was “around 10 fold”. The “stimulation of HRE reporter gene activity by hypoxia compared to normoxia” value in test [2] is “about 2 fold”.

For the molecule `[Cl-].[Cl-].[Co+2]` [CoCl2], the “effect on nuclear import of GFP-HIF-1α” value in the test with COS7 cells was “induced nuclear import of GFP-HIF-1α”.
